{"source": "patent US20060263331A1", "about": "“Therapeutic use of tumor necrosis factor-alpha mutein” (priority 2002, published 2006)", "tested_on": "malignant pleural effusion or ascites", "assay": "Clinical monotherapy of rhTNFm1, malignant pleural effusion or ascites (Total)", "format": "in vivo, human", "settings": "169 patients", "text": "Patients were selected based on the following criteria: i) measurable, objective tumor; ii) Karnofsky performance status (KPS)≧60; iii) age 18-75; iv) major organs in basically normal condition; v) no chemotherapy, radiotherapy and biologic therapy within the last month; vi) predicted ≧3 mon. survival; and vii) with patient's informed consent signed.\nPatients were excluded based on the following criteria: i) with history of allergic reactions to TNF or its derivatives; ii) pregnant or lactating women; iii) major organs with obvious damages or malfunction; iv) in ≧38° C. fever; v) with obvious tendency to haemorrhage; vi) with history of hypo- or hypertension; vii) with serious albuminemia; and viii) with strong tendency of disobedience or resistance.\nPatients were removed from the evaluation if any of the following conditions apply: i) treatment was not completed according to the protocol; ii) incomplete records; and iii) treatment using cancer therapies not in the protocol. However, patients who withdrew due to adverse reactions to the therapy were still included in the evaluation.\nThe results of the treatment of malignant pleural effusion (or hydrothorax) and ascites were evaluated based on a modified Millar standard (Millar J W, Hunfer A M, Home N W. (1980) “Inerapleural immunotherapy with CP”, in Recurrent Malignant Pleural Effusions. Thorax 35:856): i) complete response (CR)—complete disappearance of pleural effusion or ascites for at least 1 month; ii) partial response (PR)—reduction by at least 1 grade for at least 1 month; iii) minimum response (MR)—reduction in the levels of pleural effusion or ascites within the same grade for at least 1 month; iv) stabilized (SD)—levels of pleural effusion or ascites maintained within the same grade for at least 1 month; and progressed (PD): increase in the levels of pleural effusion or ascites compared with those before the treatment.\nPatients rested on day 1 and 2. The treatment cycle was 3-4 weeks.\nIt is noted that Table III includes the patients who withdrew due to […], including 1 with malignant pleural effusion and 1 with malignant ascites. For patients with malignant ascites, rhTNFm1 was reconstituted in 30-50 ml normal saline and administered intraperitoneally (i.p.) at 2,000,000-3,000,000 units each time, 1-2 times a week, with 2-3 weeks as one treatment cycle. Optionally, rhTNFm1 was administered to the patients by alternating between i.p. injection and i.v. injection (at 600,000-900,000 unit/m^2 per day continuing for 28 days as one treatment cycle). On the day when rhTNFm1 was administered via i.p. injection, administration of rhTNFm1 via i.v. injection was stopped."}
{"molecule": "rhTNFm1: Recombinant human TNF-α mutant 1 expressed in E. coli; SEQ ID NO: 3 with N-terminal methionine (FIG. 1, 2) (protein, rhTNFm1 with Met) MRKRKPVAHVVANPQAEGQLQWLNRRANALLANGVELRDNQLVVPSEGLYLIYSQVLFKGQGCPSTHVLLTHTISRIAVSYQTKVNLLSAIKSPCQRETPEGAEAKPWYEPIYLGGVFQLEKGDRLSAEINRPDYLDFAESGQVYFGIIAQ", "values": [{"measurement": "Response Rate (%) CR", "value": 8.88, "unit": "%"}, {"measurement": "Response Rate (%) CR + PR", "value": 69.23, "unit": "%"}, {"measurement": "Response Rate (%) PR", "value": 60.36, "unit": "%"}, {"measurement": "Efficacy CR", "setting": "patient count", "value": 15}, {"measurement": "Efficacy MR", "setting": "patient count", "value": 12}, {"measurement": "Efficacy PD", "setting": "patient count", "value": 2}, {"measurement": "Efficacy PR", "setting": "patient count", "value": 102}, {"measurement": "Efficacy SD", "setting": "patient count", "value": 38}]}
